{"source": "patent US20190330344A1", "about": "(F STAR THERAPEUTICS, published 2019)", "biological_target": "T1, cynomolgus LAG-3 expressed on DO11.10 cells (cynomolgus monkey, UniProt P18627 24-525 (human entry))", "T1 chain": "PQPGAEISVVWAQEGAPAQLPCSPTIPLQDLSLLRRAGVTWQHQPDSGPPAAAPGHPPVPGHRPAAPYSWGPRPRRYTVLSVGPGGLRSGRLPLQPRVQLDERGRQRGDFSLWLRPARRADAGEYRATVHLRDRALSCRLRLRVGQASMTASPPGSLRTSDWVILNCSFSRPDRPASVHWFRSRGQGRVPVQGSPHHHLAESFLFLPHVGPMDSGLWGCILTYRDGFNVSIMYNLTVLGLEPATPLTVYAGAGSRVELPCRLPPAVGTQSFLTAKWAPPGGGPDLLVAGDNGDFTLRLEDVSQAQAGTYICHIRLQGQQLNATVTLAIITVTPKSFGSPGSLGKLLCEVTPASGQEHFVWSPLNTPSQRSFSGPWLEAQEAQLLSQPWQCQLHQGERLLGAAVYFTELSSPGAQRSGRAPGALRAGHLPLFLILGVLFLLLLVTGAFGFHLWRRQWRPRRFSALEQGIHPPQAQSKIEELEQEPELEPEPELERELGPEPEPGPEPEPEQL", "experiment": "cell-based or functional assay"}
{"binder": "FS18-7-9/4420LALA (anti-human LAG-3 Fcab FS18-7-9 in mock mAb^2 format comprising the LALA mutation) (bispecific antibody, human IgG1, kappa, L234A L235A) heavy: EVKLDETGGGLVQPGRPMKLSCVASGFTFSDYWMNWVRQSPEKGLEWVAQIRNKPYNYETYYSDSVKGRFTISRDDSKSSVYLQMNNLRVEDMGIYYCTGSYYGMDYWGQGTSVTVSSASTKGPSVFPLAPSSKSTSGGTAALGCLVKDYFPEPVTVSWNSGALTSGVHTFPAVLQSSGLYSLSSVVTVPSSSLGTQTYICNVNHKPSNTKVDKKVEPKSCDKTHTCPPCPAPEAAGGPSVFLFPPKPKDTLMISRTPEVTCVVVDVSHEDPEVKFNWYVDGVEVHNAKTKPREEQYNSTYRVVSVLTVLHQDWLNGKEYKCKVSNKALPAPIEKTISKAKGQPREPQVYTLPPSWDEPWGEDVSLTCLVKGFYPSDIAVEWESNGQPENNYKTTPPVLDSDGSFFLYSKLTVPYDRWVWPDEFSCSVMHEALHNHYTQKSLSLSPG light: DVVMTQTPLSLPVSLGDQASISCRSSQSLVHSNGNTYLRWYLQKPGQSPKVLIYKVSNRFSGVPDRFSGSGSGTDFTLKISRVEAEDLGVYFCSQSTHVPWTFGGGTKLEIKRTVAAPSVFIFPPSDEQLKSGTASVVCLLNNFYPREAKVQWKVDNALQSGNSQESVTEQDSKDSTYSLSSTLTLSKADYEKHKVYACEVTHQGLSSPVTKSFNRGEC", "values": [{"measurement": "EC50 of mIL-2 release, cynomolgus LAG-3 DO11.10 T cell activation assay", "result": 5.6, "unit": "nM"}]}
